US9872831B2 (ALFASIGMA S.P.A., priority 2011, dated 2018)

Tests used:
[1] = Uptake of i.v. 111In-ST2210 in lung and non target organs 24 h after inhalation exposure
Protocol: Twenty Sprague Dawley rats were divided in three different groups.
All rats were sacrificed 2 hours after the i.v. administration of ^111In-ST2210, and samples of blood, spleen, kidney, liver, stomach, brain, trachea, and tissue samples of different portions of lung were collected, weighed and analyzed with the use of a gamma-counter (Perkin Elmer). Data were expressed as the % of injected dose/gram of tissue (% ID/g).

[2] = Linkage of instilled oxidized avidin to surgically lesioned bladder, PET with i.v. 68-Ga-ST2210; assay type: in vivo, pig; conditions: 1 h instillation, PET 4 h after 68-Ga-ST2210 i.v.
Protocol: Anesthetised female pig of about 40 kg was subjected to surgery to generate two 2 cm superficial lesions on the bladder wall. […] Bladder was then washed with saline and 0.5 μg 68-Ga-ST2210 was i.v. administered. After 4 hours the pig was subjected to PET.

[3] = Immunohistochemistry of lung sections with anti-avidin antibody after aerosol exposure; assay type: in vivo, Balb/c mice; conditions: 24 hours after aerosol exposure
Protocol: The lungs were removed and fixed in formalin and paraffin embedded. Serial sections obtained by means of a microtome were processed and incubated with a HRP-conjugated rabbit anti-avidin antibody (GeneTex, USA) and then with DAB substrate.

[4] = system: A431 cells; assay: Inhibition of proliferation, Cell Titer Glow assay; assay type: cell-based, Human; conditions: oxidized avidin alone compared with medium only (data not shown)
Protocol: Proliferation inhibition was measured by Cell Titer Glow assay, Promega.

[5] = Biodistribution of i.v. 111In-ST2210 after nebulised oxidized avidin; assay type: in vivo, Balb/c mice; conditions: nebulised 1 hour (about 90 mg/kg); 111In-ST2210 i.v. 24 h later; sacrifice after 2 or 24 hours
Protocol: A biodistribution experiment aimed at determining the lung uptake selectivity and stability of ^111In-ST2210 was conducted. […] Twenty four hours after, all mice received ^111In-ST2210 intravenously (i.e., 1 μg in 0.2 ml of saline), and after further 2 or 24 hours, the animals were sacrificed by CO2 asphyxia. The lung and non target organs were collected weighed and counted in a gamma counter.

[6] = Chemical integrity of oxidized avidin after nebulisation (HPLC); assay type: physicochemical; conditions: 3.0 mg/ml in 100 mM sodium acetate pH 5.5, nebulised 1 hour at room temperature
Description: The particle size of the protein solution midst was 5 μm. The nebulised solution was recovered in a falcon tube and analyzed by HPLC.

[7] = PET imaging of i.v. 64Cu-ST2210 after nebulised oxidized avidin; assay type: in vivo, Balb/c mice; conditions: 64Cu-ST2210 1 μg i.v. 24 h after aerosol; PET 4 hours after
Protocol: After 24 hours, they received an intravenous 1 μg dose of ^64Cu-ST2210. ^64Cu-ST2210 distribution was examined by PET imaging 4 hours after. […] Kidneys, bladder are visible in both groups of mice. This observation is consistent with the physiological elimination of ST2210 at that time point.

## Oxidized avidin: chemically oxidized avidin according to example 1 of WO2009016031, about 8 to 15 aldehyde moieties
[1]; Blood, 2 h after i.v. 111In-ST2210, 24 h after inhalation (about 10 mg/kg)
  111In-ST2210 % ID/g Blood: 0.012 ± 0.004 % ID/g
[1]; Kidney, 2 h after i.v. 111In-ST2210, 24 h after inhalation
  111In-ST2210 % ID/g Kidney: 0.414 ± 0.033 % ID/g
[1]; Liver, 2 h after i.v. 111In-ST2210, 24 h after inhalation
  111In-ST2210 % ID/g Liver: 0.051 ± 0.005 % ID/g
[1]; Lung dx (caudal lobe), 2 h after i.v. 111In-ST2210, 24 h after inhalation
  111In-ST2210 % ID/g Lung dx (caudal lobe): 0.055 ± 0.009 % ID/g
[1]; Lung dx (cranial, middle and accessory lobe), 2 h after i.v. 111In-ST2210, 24 h after inhalation
  111In-ST2210 % ID/g Lung dx (cranial, middle and accessory lobe): 0.055 ± 0.011 % ID/g
[1]; Lung sn, 2 h after i.v. 111In-ST2210, 24 h after inhalation
  111In-ST2210 % ID/g Lung sn: 0.053 ± 0.008 % ID/g
[1]; Lung, 2 h after i.v. 111In-ST2210, 24 h after inhalation
  111In-ST2210 % ID/g Lung: 0.054 ± 0.009 % ID/g
[1]; Spleen, 2 h after i.v. 111In-ST2210, 24 h after inhalation
  111In-ST2210 % ID/g Spleen: 0.032 ± 0.002 % ID/g
[1]; Stomach, 2 h after i.v. 111In-ST2210, 24 h after inhalation
  111In-ST2210 % ID/g Stomach: 0.276 ± 0.246 % ID/g
[1]; Trachea, 2 h after i.v. 111In-ST2210, 24 h after inhalation
  111In-ST2210 % ID/g Trachea: 0.029 ± 0.007 % ID/g
[1]; lung versus trachea
  organ linkage of nebulised oxidized avidin: bound to the lung but not to the trachea
[2]; intact bladder tissue
  binding to bladder tissue: completely inert
[2]; region subjected to surgery
  binding to bladder tissue: enabled the binding of oxidized avidin
[3]
  distribution of oxidized avidin in the lung: homogenous in all lung compartments
  localisation of oxidized avidin in lung sections: presence of oxidized avidin at broncho/epithelial level down to terminal bronchioles
[4]
  effect on cell proliferation: did not affect cell proliferation
[5]
  uptake of 111In-ST2210 in the lung: specific and significant uptake
[6]
  HPLC elution profile pre and post nebulisation: same elution profile
[7]
  64Cu-ST2210 PET signal in the lungs: presence of a radioactive signal in the lungs
